± gives the standard deviation.
Test: protein stability index of a GFP-peptide fusion (GPS, HEK-293T) (PSI 1-6); higher = more stable
[1] = treatment: DMSO, c terminus: a fixed tail appended
[2] = treatment: MLN4924 1 uM, 8 h, c terminus: a fixed tail appended
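Note: 24-mer peptide tiles fused after GFP, lentivirally expressed, FACS-sorted into six equal bins by GFP/DsRed ratio, decoded by Illumina sequencing, PSI is the read-weighted mean bin number.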

Sequence: SMSGGRFRCPTCRHEVIMDRHGVY [TRIM63]
- protein stability index [1]: 2.24 ± 0.11
- protein stability index [2]: 2.39 ± 0.35

Sequence: GHEYAAKIINTKKLSARDHQKLER [CAMK2B]
- protein stability index [1]: 4.09 ± 0.24
- protein stability index [2]: 4.32 ± 0.19

Sequence: SESRGSSGRVKRERDREREPEAAS [USP39]
- protein stability index [1]: 5.53 ± 0.24
- protein stability index [2]: 5.59 ± 0.19

Sequence: SENARLVLQIDNAKLAADDFRTKY [KRT36]
- protein stability index [1]: 4.03 ± 0.2
- protein stability index [2]: 4 ± 0.24

Sequence: RRENYGVPPRRATISSWRNDRMST [RBMY1A1]
- protein stability index [1]: 3.31 ± 0.28
- protein stability index [2]: 3.43 ± 0.068

Sequence: REFKVTDARDGQSRTVRQFQFTDW [PTPRD]
- protein stability index [1]: 3.16 ± 0.34
- protein stability index [2]: 3.11 ± 0.58

Sequence: RVRSLETENRRLESKIREHLEKKG [KRT18]
- protein stability index [1]: 4.44 ± 0.26
- protein stability index [2]: 4.99 ± 0.18

Sequence: DHIIEKKRTIIPTLVEAIKEQDGR [DFFB]
- protein stability index [1]: 4.63 ± 0.24
- protein stability index [2]: 4.68 ± 0.2

Sequence: AAAIIVYDITKEETFSTLKNWVKE [RAB22A]
- protein stability index [1]: 2.67 ± 1.1
- protein stability index [2]: 1.95 ± 0.86

Sequence: PQELLQSQDFVGEKLGSGEPSHSV [ATE1]
- protein stability index [1]: 5.11 ± 0.17
- protein stability index [2]: 5.43 ± 0.064

Sequence: TIEQSLLEVMEEEELANLRASQRE [RSPH3]
- protein stability index [1]: 4.68 ± 0.24
- protein stability index [2]: 4.88 ± 0.18

Sequence: LRDTYKLWVPQPPPRTIKRTRRRL [PWWP2B]
- protein stability index [1]: 3.46 ± 0.19
- protein stability index [2]: 3.64 ± 0.21

Sequence: GATTLGDMIYVSGGFDGSRRHTSM [KLHL12]
- protein stability index [1]: 2.88 ± 0.38
- protein stability index [2]: 3.02 ± 0.5

Sequence: DALQRYGTSHGAPPARGPRMSYGG [RBMY1A1]
- protein stability index [1]: 3.82 ± 0.23
- protein stability index [2]: 3.82 ± 0.21

Sequence: QLMTSQFISVFSNLLESKADGIEV [ZER1]
- protein stability index [1]: 2.89 ± 0.62
- protein stability index [2]: 2.5 ± 0.54

Sequence: ILISFTCRFLLNSRVTDAAFNFLL [TMEM120A]
- protein stability index [1]: 2.9 ± 0.38
- protein stability index [2]: 3.25 ± 0.23

Sequence: HDYIVRSGERWLERYEIDSLIGKG [DYRK1B]
- protein stability index [1]: 2.95 ± 0.49
- protein stability index [2]: 3.11 ± 0.38

Sequence: VLKVLSVCSSNKPAIVEAGGMQAL [CTNNB1]
- protein stability index [1]: 2.46 ± 0.24
- protein stability index [2]: 2.46 ± 0.098

Sequence: HFRHPKRSVSLSMRKSGAMKKGGI [BNIP3L]
- protein stability index [1]: 3.51 ± 0.36
- protein stability index [2]: 3.32 ± 0.35

Sequence: LYRGLAPNFMKVIPAVSISYVVYE [SLC25A25]
- protein stability index [1]: 2.71 ± 0.67
- protein stability index [2]: 3.25 ± 0.51

Sequence: TQELVAIKIIKNKKAFLNQAQIEL [DYRK1B]
- protein stability index [1]: 2.18 ± 0.27
- protein stability index [2]: 2.17 ± 0.3

Sequence: RYIHSMSLVHMDIKPSNIFISRTS [WEE1]
- protein stability index [1]: 1.9 ± 0.47
- protein stability index [2]: 2.46 ± 0.31

Sequence: PCPSTTCCRACSVSFSTGAGGWSN [BET1L]
- protein stability index [1]: 2.27 ± 0.91
- protein stability index [2]: 2.02 ± 0.47

Sequence: TWASPAEVVDLTLDEDSRRKYLL [C18orf25]
- protein stability index (treatment: DMSO, c terminus: native): 4.49 ± 0.44
- protein stability index (treatment: MLN4924 1 uM, 8 h, c terminus: native): 4.68 ± 0.53

Sequence: LSSWELEAWYEDLQEVLSSDENGG [DDIT3]
- protein stability index [1]: 3.19 ± 0.39
- protein stability index [2]: 3.29 ± 0.34

Sequence: KLNCDPSRIYKPQTRLKRKQPVRK [DFFB]
- protein stability index [1]: 3.36 ± 0.56
- protein stability index [2]: 3.71 ± 0.63

Sequence: LDMDEGTLSFIVDGQYLGVAFRGL [SPSB4]
- protein stability index [1]: 2.6 ± 0.46
- protein stability index [2]: 2.26 ± 0.59

Sequence: IVETLTVGCKGSKAGIEQEGYWLP [ZMYND11]
- protein stability index [1]: 2.21 ± 0.18
- protein stability index [2]: 2.26 ± 0.14

Sequence: LYTGELDENERDLMHIAHIAELLE [RHOBTB2]
- protein stability index [1]: 2.69 ± 0.33
- protein stability index [2]: 3.09 ± 0.34

Sequence: LCQCHEGFALNPDKKTCTKIDYCA [MATN2]
- protein stability index [1]: 2.95 ± 0.29
- protein stability index [2]: 3.35 ± 0.6

Sequence: SALGPNVTKITLESFLAWKKRKRQ [ZC3H15]
- protein stability index [1]: 2.92 ± 0.14
- protein stability index [2]: 3.14 ± 0.28

Sequence: NVKLQELINHKKAEDTEKKDEPSK [CEP70]
- protein stability index [1]: 5.35 ± 0.16
- protein stability index [2]: 5.2 ± 0.21

Sequence: RCRLSLDDRVLSSLVRDTIARVHG [POP5]
- protein stability index [1]: 2.29 ± 0.25
- protein stability index [2]: 2.35 ± 0.27

Sequence: GVNPDQVEKIRKLPNTLLRKDKDV [ANKRD40]
- protein stability index [1]: 4.63 ± 0.35
- protein stability index [2]: 4.73 ± 0.26

Sequence: KLDPTLSSCFFIESCGAQVPVEGS
- protein stability index [1]: 3.02 ± 0.41
- protein stability index [2]: 3.04 ± 0.5

Sequence: NDRMSTRHDGYATNDGNHPSCQET [RBMY1A1]
- protein stability index [1]: 5.17 ± 0.19
- protein stability index [2]: 5.22 ± 0.1

Source: the supplement of paper PMC10567573
